US12522635B2, “Amyloid peptide variants” (Loyola Marymount University, priority 2019, dated 2026)
Where a SMILES comes first, the peptide text is derived from it. Bridges are numbered along the chain shown (N, C = ends). Where no end group is shown, it is not given here.

How the values were obtained:
human IAPP (hIAPP) [1] = target: T1, human IAPP (hIAPP) (Homo sapiens, UniProt P10997); experiment: Atomic force microscopy (AFM) of hIAPP fibril formation when mixed with IAPP peptides; type: biochemical; details: for inhibition of hIAPP fibril formation, AFM: 37 μM hIAPP and 75 μM peptide, 37° C. with shaking for 40 minutes
T1 construct: This 37 amino acid polypeptide is co-secreted from pancreatic β-islet cells with insulin
T1 sequence (P10997 34-70 limits assumed): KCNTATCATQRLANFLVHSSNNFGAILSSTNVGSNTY
Procedure: Samples labeled with hIAPP contained 40 μM hIAPP. The sample with pramlintide and hIAPP contained a 2:1 molar mixture (80 μM Pramlintide mixed with 40 μM hIAPP). The samples with raccoon IAPP and Pramlintide alone contained 40 μM of the indicated peptides. Each sample was incubated for 40 minutes at 37° C. with shaking; conditions known to promote hIAPP amyloid formation. All scans show raw data with no flattening and are […].
Each sample contained 37 μM hIAPP and 75 μM of the indicated peptide. Samples were incubated at 37° C. with shaking for 40 minutes. All scans show raw data with no flattening and are […].
Each sample contained 37 μM hIAPP mixed with 37 μM of the indicated peptide. Samples were incubated at 37° C. with shaking for 30 minutes before depositing each sample onto freshly cleaved mica.
Samples of hIAPP with or without animal IAPP were prepared as described in Example 1 and were then incubated with shaking at 37° C. for 40 minutes. After this incubation, 17 μL of each sample was deposited onto freshly cleaved mica. Samples were incubated for 5 minutes at room temperature before washing with 200 μL sterile water. After drying, the samples were scanned using an MFP-3D atomic force microscope (Asylum Research) set on A/C mode and a 240 m silicon cantilever (Olympus).
Many of the animal IAPP variants are known to likewise form fibrils and yield amyloid-plaques when scanned via AFM. […] This is in spite of the fact that all of these IAPP peptides (except polar bear IAPP) are known to aggregate and form fibrils themselves under these or similar conditions

human IAPP (hIAPP) [2] = target: T1, human IAPP (hIAPP); experiment: Thioflavin T binding assay of hIAPP aggregation when mixed with IAPP peptides; type: biochemical; details: for inhibition of hIAPP aggregation (summary statement): peptide mixed with hIAPP, no single assay (thioflavin T and AFM); for inhibition of hIAPP aggregation, thioflavin T binding: hIAPP mixed with peptide, incubated at 37° C. with shaking
Description: Any of a number of assays known to the art can be used to evaluate the ability of IAPP peptides to inhibit hIAPP aggregation and/or protect cells from hIAPP toxicity. Thioflavin T (ThT) binding is one such technique for identifying amyloid formation in real time. Human IAPP is known to bind thioflavin T during aggregation and amyloid formation, and upon binding to amyloid fibrils ThT will give a strong fluorescence signal at approximately 482 nm when excited at 450 nm. ThT fluorescence correlates linearly with amyloid concentration in a sample and therefore can be used to determine the amount of aggregation in a sample. This technique can therefore be used for identifying substances with amyloid-inhibiting potential when such substances are mixed with human IAPP under conditions known to result in the formation of aggregates by hIAPP. Determining the extent of aggregation can also be determined using other techniques, such as Atomic Force Microscopy (AFM), which can provide information about particle dimensions, shape, and substructure with nanometer resolution. In the foregoing assays and others that can be used by one of skill in the art, significant inhibition can be determined using a t-test by measuring the difference between hIAPP and hIAPP combined with an IAPP peptide.
To identify IAPP peptides having inhibitory potential against hIAPP aggregation, the peptides shown in FIG. 1 from a number of species (cow, degu, guinea pig, horse, pig, rat, and sheep[…]) were mixed with hIAPP at a 2:1 molar ratio of animal peptide to hIAPP and incubated under conditions known to promote hIAPP aggregation and fibril formation. IAPP alone, or hIAPP mixed with an animal IAPP, was pipetted into a glass tube and the HFIP was removed under speed-vacuum. The resulting peptide sample was dissolved in 20 mM Tris buffer pH 7.4.
37 μM human IAPP was mixed with 75 μM of each indicated animal IAPP. Aggregation was initiated by incubating samples at 37° C. with shaking at 200 rpm for 40 minutes. At indicated time points, a 17 μL aliquot of each sample was mixed with 663 μL of 50.0 μM thioflavin T in 20 mM Tris buffer (pH 7.4). Thioflavin T fluorescence emission was then recorded at 488 nm using a Hitachi F-7000 fluorescence spectrophotometer.
After 40 minutes, these samples were monitored for their ability to bind thioflavin T (see FIG. 2) and their ability to form fibrils as identified with atomic force microscopy.
Human IAPP (37 μM) was mixed with each of the indicated Weddell seal variants (at 75 μM) and incubated for 30 minutes at 37° C. with shaking at 200 rpm. The Weddell seal IAPP peptides were likewise subjected to atomic force microscopy as described in Example 2.
Human IAPP was mixed with each of the indicated raccoon variants and incubated at 37° C. with shaking.
Human IAPP was mixed with each of the indicated chicken variants and incubated at 37° C. with shaking. […] However, it was able to protect cells in MTT assays, so it is believed to inhibit formation of toxic oligomers while having a lesser effect on inhibiting the formation of fibers (which are less toxic and less able to bind ThT).
Human IAPP was mixed with each of the indicated chicken variants and incubated at 37° C. with shaking.

RIN-m cells = experiment: MTT viability assay, peptide alone or mixed with hIAPP; type: cell-based; details: for rescue / protection of cells from hIAPP toxicity (words): hIAPP mixed with peptide 1:1, MTT assay; for toxicity of peptide to cells: peptide alone, MTT assay, pancreatic (RIN-m) cells
Description: Cytoprotection can likewise be measured by a number of assays known to the art. One such assay is the MTT assay, which is a colorimetric assay for assessing cell metabolic activity. NAD(P)H-dependent cellular oxidoreductase enzymes in the cytosolic compartment of a cell reduces the tetrazolium dye MTT 3-(4,5-dimethylthiazol-2-yl)-2,5-diphenyltetrazolium bromide to an insoluble form, formazan, which has a purple color. The reduction of MTT (and other tetrazolium dyes) depends on the cellular metabolic activity, so a loss of color in the course of performing an MTT assay indicates low metabolic activity, and is thus an indicator of cell damage and death.
To test cell viability, a MTT colorimetric assay measuring the conversion of yellow tetrazolium salt into purple formazan crystal catalyzed by a mitochondrial reductase was used. Cell viability studies were performed using RIN-m cells (ATCC, CRL-2057). An equal number of RIN-m cells were plated in triplicate and incubated overnight in 96-well plates. The next day, fresh RPMI-1640 with phenol red supplemented with 10% FBS was added to cells. Hexafluoroisopropanol (HFIP) was removed from each individual human and animal IAPP using a centrivap concentrator (LabOnco). All IAPP peptide samples were re-suspended in RPMI-1640 with 10% FBS. To ensure even re-suspension, each resulting IAPP-containing vial was scraped with a pipette tip six times and vortexed (Vortex Genie Mixer) for 15 seconds. The whole process, from drying each IAPP peptide to adding each IAPP peptide to the cells was uniform to ensure that each sample was incubated for an equal amount of time with each IAPP peptide. IAPP peptides were added to cells and incubated for 46 hours at 37° C. Post-incubation, the media in each well was replaced by fresh DMEM/F-12 without phenol red. MTT (3-(4,5-dimethyl-2-thiazolyl)-2,5-diphenyl-tetrazolium bromide) was added into each well and incubated at 37° C. for 2 hours. Formazan crystals, formed on the bottom of the wells, were re-suspended in solubilization buffer (20% SDS and 50% dimethylformamide). The absorbance in each well was taken at 570 nm using a Multiskan FC Microplate Photometer (Thermos Fisher Scientific). Media were obtained from ATCC. All incubations took place in a water jacketed incubator in 5% carbon dioxide at 37° C. (Shell Lab).
The MTT viability assay was used to measure cell viability of RIN-m cells upon addition of hIAPP alone, the addition of each animal IAPP peptide alone, and hIAPP mixed with each animal IAPP peptide (results shown in FIG. 5). RIN-m cells alone were used as a control and set to 100% cell viability. […] Addition of raccoon IAPP to hIAPP increased the cell viability from 55% to an average of 72% (p=0.005705). Addition of chicken IAPP variant to hIAPP increased cell viability to an average of 76% (p=0.013556).

Compound | inhibition of hIAPP fibril formation, AFM (human IAPP (hIAPP) [1]) | inhibition of hIAPP aggregation (summary statement) (human IAPP (hIAPP) [2]) | other results
R8-23: truncated raccoon IAPP peptide of FIG. 19; sequence not printed in the text (VTQRLANFLLRSSNNL) | did not inhibit hIAPP aggregation | – | –
degu IAPP: naturally occurring IAPP peptide of degu origin (FIG. 1) (KCNTATCATQRLTNFLVRSSHNLGAALPPTKVGSNTY; ends and bridges not checked; cysteine pairing not given here; UniProt P22889 37-73, looked up) | either had no effect on hIAPP fibril formation or appeared to promote fibrils with hIAPP | failed to inhibit the aggregation of human IAPP | –
cow IAPP: naturally occurring IAPP peptide of cow origin (FIG. 1) (CGTATCETQRLANFLAPSSNKLGAIFSPTKMGSNTY; ends and bridges not checked; cysteine pairing not given here) | either had no effect on hIAPP fibril formation or appeared to promote fibrils with hIAPP | failed to inhibit the aggregation of human IAPP | –
KCNTATCVTQRLADFLVRSSSNLGAIYSPTNVGSNTY (Gallus gallus mutation) [Ch_I22L] | – | – | inhibition of hIAPP aggregation, thioflavin T binding (human IAPP (hIAPP) [2]): inhibited hIAPP aggregation; inhibition of hIAPP fiber formation (human IAPP (hIAPP) [1]; FIG. 22: 37 μM hIAPP mixed with 37 μM peptide, 37° C. with shaking for 30 minutes): able to inhibit hIAPP fiber formation; rescue / protection of cells from hIAPP toxicity (words) (RIN-m cells): rescued cells from hIAPP-induced cytotoxicity; rescue / protection of cells from hIAPP toxicity (words) (RIN-m cells; listed as Ch-122L): rescue cells from hIAPP toxicity; toxicity of peptide to cells (RIN-m cells): minimal inherent toxicity
R1-23: truncated raccoon IAPP peptide of FIG. 19; sequence not printed in the text (KCNTATCVTQRLANFLLRSSNNL) | did not inhibit hIAPP aggregation | – | –
guinea pig IAPP: naturally occurring IAPP peptide of guinea pig origin (FIG. 1) (KCNTATCATQRLTNFLVRSSHNLGAALLPTDVGSNTY; ends and bridges not checked; cysteine pairing not given here; UniProt P12966 37-73, looked up) | either had no effect on hIAPP fibril formation or appeared to promote fibrils with hIAPP | failed to inhibit the aggregation of human IAPP | –
KCNTATCATQRLANFLVRTSNNLGAILSPTNVGSNTY (ends and bridges not checked; cysteine pairing not given here) [dog IAPP] | significant ability to prevent fiber formation | able to inhibit such aggregation | –
KCNTATCATQRLANFLVHSSNNLGAILSPTNVGSNTY (KTATCATQRLANFLVHSSNNLGAILSPTNVGSNTY; Leptonychotes weddellii mutation) [WS_LP] | strong inhibitors of hIAPP fiber formation | – | inhibition of hIAPP aggregation, thioflavin T binding (human IAPP (hIAPP) [2]): inhibited hIAPP aggregation; toxicity of peptide to cells (RIN-m cells): toxic to cells, with and without addition of hIAPP
CC[C@H](C)[C@H](NC(=O)[C@H](C)NC(=O)CNC(=O)[C@H](CC(C)C)NC(=O)[C@H](CC(N)=O)NC(=O)[C@H](CC(N)=O)NC(=O)[C@H](CO)NC(=O)[C@H](CO)NC(=O)[C@H](CCCNC(=N)N)NC(=O)[C@@H](NC(=O)[C@H](CC(C)C)NC(=O)[C@H](Cc1ccccc1)NC(=O)[C@H](CC(N)=O)NC(=O)[C@H](C)NC(=O)[C@H](CC(C)C)NC(=O)[C@H](CCCNC(=N)N)NC(=O)[C@H](CCC(N)=O)NC(=O)[C@@H](NC(=O)[C@H](C)NC(=O)[C@@H]1CSSC[C@H](NC(=O)[C@@H](N)CCCCN)C(=O)N[C@@H](CC(N)=O)C(=O)N[C@@H]([C@@H](C)O)C(=O)N[C@@H](C)C(=O)N[C@@H]([C@@H](C)O)C(=O)N1)[C@@H](C)O)[C@@H](C)CC)C(=O)N[C@@H](CC(C)C)C(=O)N[C@@H](CO)C(=O)N1CCC[C@H]1C(=O)N[C@H](C(=O)N[C@@H](CC(N)=O)C(=O)N[C@H](C(=O)NCC(=O)N[C@@H](CO)C(=O)N[C@@H](CC(N)=O)C(=O)N[C@H](C(=O)N[C@@H](Cc1ccc(O)cc1)C(N)=O)[C@@H](C)O)C(C)C)[C@@H](C)O [cat IAPP] (H-KCNTATCATQRLANFLIRSSNNLGAILSPTNVGSNTY-NH2; disulfide 2-7 (inferred); N-terminus and C-terminus assumed) | significant ability to prevent fiber formation | able to inhibit such aggregation | –
R8-30: truncated raccoon IAPP peptide of FIG. 19; sequence not printed in the text (VTQRLANFLLRSSNNLGAILSPT) | did not inhibit hIAPP aggregation | – | –
